# Results reported in US20090191186A1 (KALOBIOS PHARMACEUTICALS, published 2009).
# Changes are numbered by the printed parent chain.
# B1: Fab SEQ ID NOs. 35. 36 (Fab, V domains shown)
# VH: EVQLVESGGGVVQPGRSLRLSCAASGFTFSNYPMHWVRQAPGKGLEWVAVISYDGSEKWYADSVKGRFTISRDNSKNTLYLEMNSLRPEDTAVYYCARNRGDIYYDFTYAMDYWGQGTTVTVSS
# VL: DIQLTQSPSTLSASVGDSVTITCRASEGVDRWLAWYQQKPGRAPKLLIYDASTLQSGVPSRFSGSGSGTEFSLTISSLQPDDVATYYCQHFWSTPYTFGQGTKLEIK
# B2: Fab SEQ ID NOs: 5, 6 (Fab, V domains shown)
# VH: QVQLVESGGGVVQPGRSLRLSCTASGFSFSSYGMHWVRQAPGKGLEWVAVIWYNGKEISYADSVKGRFTVSRDNPKNTLYLQMSSLRTEDTAVYYCARNRGDIYYDFTYAMDIWGQGTMVTVSS
# VL: AIQLTQSPSFLSASVGDRVTITCRASQGISTYLAWYQQKPGKAPKLLIYAASSLQSGVPSRFSGSGSGTDFTLTISSLQPEDVATYYCQQFWSTPYTFGQGTKLEIK
# B3: Fab SEQ ID NOs: 13, 4 (Fab, V domains shown)
# VH: QVQLVESGGGVVQPGRSLRLSCAASGFTFSSYPLHWVRQAPGKGLEWVSFISYDGSEKYYASSVKGRFTISRDNSENTLYLQMNSLRPEDTAVYYCARNRGDIYYDFTYAMDIWGQGTMVTVSS
# VL: DIQMTQSPSSLSASVGDRVTITCRASQSISRWVAWYQQRPGKAPNLLIYDASSLKSGVPSRFSGSGSGTEFTLTISSLQPEDIATYYCQQFWSTPYTFGQGTKLEIK
# B4: Fab SEQ ID NOs: 13, 10 (Fab, V domains shown)
# VH: B3 VH
# VL: B2 VL with A1D, A50D, S53A, D70E
# B5: Fab SEQ ID NOs 3, 4 (Fab, V domains shown)
# VH: B2 VH with R16G, T23A, S28T, S31T, Y32A
# VL: B3 VL
# B6: Fab SEQ ID NOs. 24, 26 (Fab, V domains shown)
# VH: B1 VH with Y113I
# VL: B1 VL with S93G
# B7: Fab SEQ ID NOs: 13, 37 (Fab, V domains shown)
# VH: B3 VH
# VL: B3 VL with S93G
# Biological target: PcrV of the Type III secretion system on P. aeruginosa strain PA103 (Pseudomonas aeruginosa strain PA103)
# Experiment: cell-based or functional assay
row,Binder,"IC50 (nM), TTSS-dependent cytotoxicity assay (PA103 killing of P3-X63-Ag8 cells)"
1,B1,61.4 nM
2,B2,50.2 nM
3,B3,20 nM
4,B4,25.5 nM
5,B5,35.1 nM
6,B6,25.5 nM
7,B7,12 nM
